Values of other authors in article PMC5650667.

Key:
RXFP2 (Homo sapiens) = RXFP2 (Homo sapiens) (UniProt Q8WXD0)
RXFP4 (Homo sapiens) = RXFP4 (Homo sapiens) (UniProt Q8TDU9)
[1] = molecular target: TRH1 receptor (Homo sapiens) (UniProt P34981); assay: radioligand binding
UniProt P34981, sequence (P34981 whole entry): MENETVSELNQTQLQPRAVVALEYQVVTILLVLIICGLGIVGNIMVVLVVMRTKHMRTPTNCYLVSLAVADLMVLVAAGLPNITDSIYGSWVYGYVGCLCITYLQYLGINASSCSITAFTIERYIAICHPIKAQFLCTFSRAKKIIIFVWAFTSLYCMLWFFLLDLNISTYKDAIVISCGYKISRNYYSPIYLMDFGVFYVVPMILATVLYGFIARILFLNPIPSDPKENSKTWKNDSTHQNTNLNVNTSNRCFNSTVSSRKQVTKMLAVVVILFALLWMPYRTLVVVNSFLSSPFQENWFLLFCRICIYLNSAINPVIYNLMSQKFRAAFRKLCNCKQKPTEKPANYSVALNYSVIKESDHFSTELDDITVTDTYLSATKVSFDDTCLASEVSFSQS

UniProt Q8WXD0, sequence (Q8WXD0 whole entry): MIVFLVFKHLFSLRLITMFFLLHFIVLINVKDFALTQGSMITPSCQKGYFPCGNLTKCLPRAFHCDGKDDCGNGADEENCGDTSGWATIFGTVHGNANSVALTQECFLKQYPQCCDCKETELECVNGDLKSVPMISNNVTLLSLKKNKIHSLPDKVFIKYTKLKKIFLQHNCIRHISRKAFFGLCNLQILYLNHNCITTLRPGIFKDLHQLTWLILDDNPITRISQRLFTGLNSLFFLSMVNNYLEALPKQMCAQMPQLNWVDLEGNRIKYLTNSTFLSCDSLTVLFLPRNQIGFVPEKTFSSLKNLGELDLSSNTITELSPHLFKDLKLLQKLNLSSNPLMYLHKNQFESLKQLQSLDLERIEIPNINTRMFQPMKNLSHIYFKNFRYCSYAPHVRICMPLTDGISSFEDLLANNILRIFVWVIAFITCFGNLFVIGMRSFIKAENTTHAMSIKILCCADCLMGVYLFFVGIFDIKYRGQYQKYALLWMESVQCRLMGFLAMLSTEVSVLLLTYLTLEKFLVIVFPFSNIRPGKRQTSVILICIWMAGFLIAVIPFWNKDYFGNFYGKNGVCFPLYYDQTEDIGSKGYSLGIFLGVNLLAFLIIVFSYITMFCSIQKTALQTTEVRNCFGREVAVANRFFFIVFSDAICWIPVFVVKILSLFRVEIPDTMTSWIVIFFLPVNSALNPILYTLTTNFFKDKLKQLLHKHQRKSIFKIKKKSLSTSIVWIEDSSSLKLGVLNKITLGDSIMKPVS
UniProt Q8TDU9, sequence (Q8TDU9 whole entry): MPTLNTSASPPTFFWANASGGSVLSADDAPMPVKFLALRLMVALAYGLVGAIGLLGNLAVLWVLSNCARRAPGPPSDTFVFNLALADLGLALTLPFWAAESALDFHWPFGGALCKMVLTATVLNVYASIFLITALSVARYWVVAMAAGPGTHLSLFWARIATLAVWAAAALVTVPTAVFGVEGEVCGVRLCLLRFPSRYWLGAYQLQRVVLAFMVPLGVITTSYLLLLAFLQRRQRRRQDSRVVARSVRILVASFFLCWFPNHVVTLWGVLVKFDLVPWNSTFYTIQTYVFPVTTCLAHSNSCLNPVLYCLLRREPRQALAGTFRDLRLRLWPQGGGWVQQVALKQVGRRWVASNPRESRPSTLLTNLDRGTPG

In the case of INSL3 (from UniProt P51460), the Kd (RXFP2 (Homo sapiens)) is given as 1 nM.
For INSL5 (from UniProt Q9Y5Q6), the Kd (RXFP4 (Homo sapiens)) is given as 5 nM.
For TRH (from UniProt P20396), the Kd [1] is given as 13 nM.
